{"source": "patent US8993229", "key": {"[1]": {"molecular_target": "porcine gastric mucin coupled to magnetic beads (mucin from porcine stomach, type III, Sigma) (porcine)", "experiment": "PGM-MB pull-down, qRT-PCR; untreated virus (0 seconds) in the thermal series"}, "[2]": {"molecular_target": "porcine gastric mucin coupled to magnetic beads (mucin from porcine stomach, type III, Sigma) (porcine)", "experiment": "PGM-MB pull-down, qRT-PCR; 0 J/cm^2; printed as 'bound' but the context (84% bound) shows it is the unbound fraction"}, "[3]": {"molecular_target": "porcine gastric mucin coupled to magnetic beads (mucin from porcine stomach, type III, Sigma) (porcine)", "experiment": "PGM-MB pull-down, qRT-PCR; 0 J/cm^2 in the UV series"}, "[4]": {"molecular_target": "porcine gastric mucin coupled to magnetic beads (mucin from porcine stomach, type III, Sigma) (porcine)", "experiment": "PGM-MB pull-down, qRT-PCR; untreated virus in the 300-600 MPa series"}, "[5]": {"molecular_target": "porcine gastric mucin coupled to magnetic beads (mucin from porcine stomach, type III, Sigma) (porcine)", "experiment": "PGM-MB pull-down, qRT-PCR; untreated control in the initial pressure trials"}, "[6]": {"molecular_target": "porcine gastric mucin coupled to magnetic beads (mucin from porcine stomach, type III, Sigma) (porcine)", "experiment": "PGM-MB pull-down, qRT-PCR; after 0.25 J/cm^2 UV"}, "[7]": {"molecular_target": "porcine gastric mucin coupled to magnetic beads (mucin from porcine stomach, type III, Sigma) (porcine)", "experiment": "PGM-MB pull-down, qRT-PCR; after 1 J/cm^2 UV"}, "[8]": {"molecular_target": "porcine gastric mucin coupled to magnetic beads (mucin from porcine stomach, type III, Sigma) (porcine)", "experiment": "PGM-MB pull-down, qRT-PCR; after 0.5 J/cm^2 UV"}, "[9]": {"molecular_target": "porcine gastric mucin coupled to magnetic beads (mucin from porcine stomach, type III, Sigma) (porcine)", "experiment": "PGM-MB pull-down, qRT-PCR; after 600 MPa, 5 minutes, 5 C"}, "[10]": {"molecular_target": "porcine gastric mucin coupled to magnetic beads (mucin from porcine stomach, type III, Sigma) (porcine)", "experiment": "PGM-MB pull-down, qRT-PCR of the bound fraction; after 500 and 600 MPa, 5 minutes, 5 C"}, "[11]": {"molecular_target": "porcine gastric mucin coupled to magnetic beads (mucin from porcine stomach, type III, Sigma) (porcine)", "experiment": "PGM-MB pull-down, qRT-PCR; after about 60 seconds in the heat block, about 64 C"}}}
{"substance": "GI.1 Norwalk strain norovirus (untreated virions from stool stock, patient No. 505A-05) (from UniProt Q83884 1-530)", "values": [{"measurement": "percent bound", "setting": "[1]", "result": 68, "unit": "%"}, {"measurement": "percent unbound", "setting": "[1]", "result": 32, "unit": "%"}, {"measurement": "percent unbound", "setting": "[2]", "result": 16, "unit": "%"}, {"measurement": "percent bound", "setting": "[3]", "result": 84, "unit": "%"}, {"measurement": "percent bound", "setting": "[4]", "result": 82, "unit": "%"}, {"measurement": "percent bound", "setting": "[5]", "result": 71, "unit": "%"}]}
{"substance": "GI.1 norovirus after UV treatment (254 nm, up to 2 J/cm^2) (from UniProt Q83884 1-530)", "values": [{"measurement": "percent unbound", "setting": "[6]", "result": 40, "unit": "%"}, {"measurement": "percent bound", "setting": "[7]", "result": 4, "unit": "%"}, {"measurement": "percent bound", "setting": "[8]", "result": 33, "unit": "%"}, {"measurement": "percent unbound", "setting": "[8]", "result": 67, "unit": "%"}]}
{"substance": "GI.1 norovirus after high pressure treatment (300-600 MPa, 5 minutes, 5 C) (from UniProt Q83884 1-530)", "values": [{"measurement": "percent bound", "setting": "[9]", "result": 0.3, "unit": "%"}, {"measurement": "log10 reduction of qRT-PCR detectable norovirus RNA after binding to PGM-MBs", "setting": "[10]", "result": "> 4.7"}]}
{"substance": "GI.1 norovirus after thermal treatment (80 C heat block, 0-600 seconds) (from UniProt Q83884 1-530)", "values": [{"measurement": "percent bound", "setting": "[11]", "result": 6, "unit": "%"}]}
{"substance": "GII.4 norovirus (untreated virions, stock provided by the CDC)", "values": [{"measurement": "percent bound", "setting": "[5]", "result": 69, "unit": "%"}]}
{"substance": "GII.4 norovirus after high pressure treatment (600 MPa, 5 minutes, 5 C)", "values": [{"measurement": "percent bound", "setting": "[9]", "result": 4, "unit": "%"}]}
